This assay concerns the target T1, ATI2-N, N-terminal region of ATG8 Interacting Protein 2 (M1-T193) (Arabidopsis thaliana, UniProt Q8VY98 1-193).
T1 sequence (looked up): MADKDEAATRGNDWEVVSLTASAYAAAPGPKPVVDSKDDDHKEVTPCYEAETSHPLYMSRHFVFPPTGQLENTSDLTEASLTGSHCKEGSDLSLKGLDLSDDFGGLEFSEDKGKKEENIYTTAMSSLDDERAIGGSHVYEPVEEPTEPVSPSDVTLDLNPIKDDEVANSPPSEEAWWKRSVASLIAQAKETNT
The assay can be described thus: NMR titration.

B1: ATG8f, processed form (1-117), recombinant (natural protein, Arabidopsis thaliana, UniProt Q8VYK7 1-117, looked up)
chain: MAKSSFKQEHDLEKRRAEAARIREKYPDRIPVIVEKAEKSDIPTIDKKKYLVPADLTVGQFVYVIRKRIKLSAEKAIFIFVDNVLPPAGALMSSVYEEKKDDDGFLYVTYSGENTFG
For B1, the binding result is recorded as “binds”.

For the origin of these results see article doi:10.1101/406538 (bioRxiv, 2018).
